According to patent US20110306057A1:

Molecular target: PP2A regulatory subunit B56γ (human (endogenous in human HEK TER cells)), Q13362
Test: anti-FLAG co-IP from HEK TER cells, immunoblot, densitometry; +++ >90%, ++ 50-90%, + <50%
Settings: remark: other sources report otherwise

Chain of PP2A regulatory subunit B56γ (human (endogenous in human HEK TER cells)), Q13362 (Q13362 whole entry): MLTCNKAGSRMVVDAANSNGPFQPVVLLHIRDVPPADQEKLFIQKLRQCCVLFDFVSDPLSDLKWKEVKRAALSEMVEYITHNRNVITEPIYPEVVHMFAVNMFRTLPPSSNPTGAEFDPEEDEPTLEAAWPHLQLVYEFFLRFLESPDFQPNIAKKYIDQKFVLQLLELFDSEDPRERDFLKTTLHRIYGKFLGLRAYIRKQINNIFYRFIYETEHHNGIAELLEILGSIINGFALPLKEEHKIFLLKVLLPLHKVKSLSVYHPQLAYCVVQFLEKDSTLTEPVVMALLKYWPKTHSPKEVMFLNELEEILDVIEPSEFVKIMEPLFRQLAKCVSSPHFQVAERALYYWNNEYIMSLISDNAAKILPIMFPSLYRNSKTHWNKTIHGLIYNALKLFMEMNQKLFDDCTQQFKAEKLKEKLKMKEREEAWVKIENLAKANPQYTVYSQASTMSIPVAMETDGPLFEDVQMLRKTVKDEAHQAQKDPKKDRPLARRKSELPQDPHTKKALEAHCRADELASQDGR

B1: wild type (WT) FLAG epitope-tagged version of PP2A Aβ, P30154 1-601 (protein, not shown: small tags and cut ends)
chain: MAGASELGTGPGAAGGDGDDSLYPIAVLIDELRNEDVQLRLNSIKKLSTIALALGVERTRSELLPFLTDTIYDEDEVLLALAEQLGNFTGLVGGPDFAHCLLPPLENLATVEETVVRDKAVESLRQISQEHTPVALEAYFVPLVKRLASGDWFTSRTSACGLFSVCYPRASNAVKAEIRQQFRSLCSDDTPMVRRAAASKLGEFAKVLELDSVKSEIVPLFTSLASDEQDSVRLLAVEACVSIAQLLSQDDLETLVMPTLRQAAEDKSWRVRYMVADRFSELQKAMGPKITLNDLIPAFQNLLKDCEAEVRAAAAHKVKELGENLPIEDRETIIMNQILPYIKELVSDTNQHVKSALASVIMGLSTILGKENTIEHLLPLFLAQLKDECPDVRLNIISNLDCVNEVIGIRQLSQSLLPAIVELAEDAKWRVRLAIIEYMPLLAGQLGVEFFDEKLNSLCMAWLVDHVYAIREAATNNLMKLVQKFGTEWAQNTIVPKVLVMANDPNYLHRMTTLFCINALSEACGQEITTKQMLPIVLKMAGDQVANVRFNVAKSLQKIGPILDTNALQGEVKPVLQKLGQDEDMDVKYFAQEAISVLALA
Binder B1 has a binding level (percent, co-immunoprecipitation densitometry) of over 90%.
